Here are results for four molecules from US20240368258A1 (RUTGERS THE STATE UNIVERSITY OF NEW JERSEY, published 2024).

Experiment [1] concerns the target T1, EphA5 expressed on H460 human lung carcinoma cells (human, UniProt P54756 25-1037).
T1 construct: whole, on cells; H226 cells served as the EphA5-negative cell line; also called native EphA5 target; endogenous EphA5 expressed on the cell surface
In words: whole cell phage-ELISA, monovalent phage on H460 cells. The protocol: Single scFv clones were produced as monovalent phage and tested for binding on H460 human lung carcinoma (EphA5 positive) and H226 human lung squamous cell carcinoma (EphA5 negative) cell lines in vitro. Briefly, cells were seeded on 96-well plate, blocked and incubated with phage displaying the scFv of interest at different concentrations. After washing, cell surface bound phage were detected with the antiM13-HRP conjugated mAb (GE).

Experiment [2] addresses T2, GRP78 on the surface of MCF-7 human breast cancer cells (human, UniProt P11021 19-654).
T2 construct: whole, on cells; also called surface GRP78; 78 kDa glucose-regulated protein
Kind of experiment: whole cell phage-ELISA, monovalent phage on MCF-7 cells. The protocol: FIG. 8. Phage binding on cells. […] Single scFv clones were produced as monovalent phage and tested for binding on MCF-7 in vitro. Briefly, cells were seeded on 96-well plate, blocked and incubated with phage displaying the scFv of interest at different concentrations. After washing, cell surface bound phage were detected with the antiM13-HRP conjugated mAb (GE).
Single scFv clones were produced as monovalent phage and tested for binding on MCF-7 in vitro. Briefly, cells were seeded on 96-well plate, blocked and incubated with phage displaying the scFv of interest at different concentrations. After washing, cell surface bound phage were detected with the antiM13-HRP conjugated mAb (GE). […] Anti-GRP78 phage bind specifically to cells expressing surface GRP78.

T1 sequence (P54756 25-1037): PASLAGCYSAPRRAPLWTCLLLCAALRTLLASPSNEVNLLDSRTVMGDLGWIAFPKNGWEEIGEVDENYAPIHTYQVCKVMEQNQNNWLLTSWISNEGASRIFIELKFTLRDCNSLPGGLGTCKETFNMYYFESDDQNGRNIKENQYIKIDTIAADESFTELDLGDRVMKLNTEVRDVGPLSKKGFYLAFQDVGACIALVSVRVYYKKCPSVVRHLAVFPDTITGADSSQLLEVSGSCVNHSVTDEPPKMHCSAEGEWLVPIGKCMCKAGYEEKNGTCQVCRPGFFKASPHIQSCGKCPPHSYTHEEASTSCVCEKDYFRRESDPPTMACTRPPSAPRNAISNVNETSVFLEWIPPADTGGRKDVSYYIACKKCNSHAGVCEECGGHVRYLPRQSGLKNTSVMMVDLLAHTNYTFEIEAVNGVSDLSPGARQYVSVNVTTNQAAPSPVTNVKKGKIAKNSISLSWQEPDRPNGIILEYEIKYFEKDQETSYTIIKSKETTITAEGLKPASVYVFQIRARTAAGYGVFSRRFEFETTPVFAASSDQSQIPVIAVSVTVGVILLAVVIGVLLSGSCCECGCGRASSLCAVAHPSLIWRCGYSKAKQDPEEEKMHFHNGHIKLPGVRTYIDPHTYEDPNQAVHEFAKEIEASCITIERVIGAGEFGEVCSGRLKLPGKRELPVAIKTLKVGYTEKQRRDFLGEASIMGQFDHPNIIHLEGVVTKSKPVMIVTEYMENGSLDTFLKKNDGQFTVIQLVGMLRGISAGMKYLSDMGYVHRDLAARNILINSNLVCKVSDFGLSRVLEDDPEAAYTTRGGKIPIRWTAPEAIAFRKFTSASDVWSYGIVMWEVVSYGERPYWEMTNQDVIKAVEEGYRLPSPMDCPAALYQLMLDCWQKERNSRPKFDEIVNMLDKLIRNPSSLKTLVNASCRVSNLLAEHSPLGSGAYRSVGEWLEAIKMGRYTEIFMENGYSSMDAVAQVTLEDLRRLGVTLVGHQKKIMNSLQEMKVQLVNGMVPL
T2 sequence (P11021 19-654): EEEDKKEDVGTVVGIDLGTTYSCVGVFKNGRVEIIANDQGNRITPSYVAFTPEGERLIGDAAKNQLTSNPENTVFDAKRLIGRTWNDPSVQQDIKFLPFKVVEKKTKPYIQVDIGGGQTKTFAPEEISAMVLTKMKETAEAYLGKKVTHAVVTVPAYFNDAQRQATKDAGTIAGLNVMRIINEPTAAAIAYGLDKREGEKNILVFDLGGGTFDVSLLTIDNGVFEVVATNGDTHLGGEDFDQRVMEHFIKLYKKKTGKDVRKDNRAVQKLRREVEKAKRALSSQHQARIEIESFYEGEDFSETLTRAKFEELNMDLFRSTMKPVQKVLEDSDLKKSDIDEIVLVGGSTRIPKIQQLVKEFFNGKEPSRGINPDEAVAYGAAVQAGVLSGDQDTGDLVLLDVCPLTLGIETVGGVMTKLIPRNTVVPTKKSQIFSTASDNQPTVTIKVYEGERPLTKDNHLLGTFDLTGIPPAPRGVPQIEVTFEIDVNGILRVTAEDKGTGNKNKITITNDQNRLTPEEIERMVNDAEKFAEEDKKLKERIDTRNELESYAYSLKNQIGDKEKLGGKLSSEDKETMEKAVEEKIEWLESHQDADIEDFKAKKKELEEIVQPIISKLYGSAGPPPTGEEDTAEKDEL

B1: antiEphA5_T22 scFv (scFv)
scFv: QPVLTQSSSLSASPGASVSLTCTLRSGINVGPYRMYWYQQKPGSPPQYLLSYKSDSDTQQASGVPSRFSGSKDASANAGILLISGLQSEDEADYYCMIWHNNAVVFGGGTKLTVLSGGSTITSYNVYYTKLSSSGTQVQLVQSGTEVKKPGASVKVSCKVSGYSLSELSMHWVRQAPGKGLEWMGSFDPEDGETTYAQRFQGRVTMTEDTSTDTAYMELRSLTSDDTAVYYCAREIWSGYAYFDLWGRGTLVTVSS
For the molecule B1, in experiment [1], the binding result is reported as “binds”.

B2: antiGRP78_B4 scFv (scFv)
scFv: SYVLTQPPSVSVAPGKTATITCGGDDIGSKSVHWYQQKPGQAPVLVVYDDGDRPSGIPERFSGSNSGNTATLAISRVEAGDEADYYCQVWDSSSDQYVFGSGTKLTVLSGGSTITSYNVYYTKLSSSGTQVRLQESGPGLVKPSQTLSLTCTVSGGSISSGGYYWSWIRQHPGKGLEWIGYIYYSGSTYYNPSLESRVTISVDTSKNQFSLKLSSVTAADTAVYYCARYSSIDAFEIWGQGTMVTVSS
As to B2, in experiment [2], the binding result is “binds”.

B3: antiGRP78_F6 scFv (scFv)
scFv: SYELTQPHSVSVAPGQTARITCGGDNIGSKSVHWYQQRPGQAPVLVVYDDSDRPSGIPERFSGSNSENTATLTISGVEAGDEADYYCQVWDSTSHHVVFGGGTKLTVLSGGSTITSYNVYYTKLSSSGTQVQLQQSGPGLVKPPQTLSLTCAISGDSVSSNSAAWNWIRQSPSRGLEWLGRTYYRSKWYNDYAVSVKSRITINPDTSKNQFSLQLNSVTPEDTAVYYCARDPYYYDSSGYYYFDAFDIWGQGTMVTVSS
As for B3, the binding result in experiment [2] is recorded as “binds”.

B4: antiEphA5_F31 scFv (scFv)
scFv: SYELTQPPSVSVAPGKTARITCEGNNIGSKGVHWYQQKPGQAPALVVYDGSDRPSGIPERFSGSNSGNTATLTISRVEAGDEADYYCQVWDNSSDHPNYVFGTRTKLTVLSGGSTKTSYNVYYTKLSSSGTQVQLVETGGGLVQPGGSLRLSCAASGFTFSSYAMSWVRQAPGKGLEWVSAISGSGGSTYYADSVKGRFTISRDNSKNTLYLQMNSLRAEDTAVYYCARVAAGDYWGQGTLVTVSS
With B4, in experiment [1], the binding result was “binds”.
